Experimental data reported in patent US20260133192A1 (FRED HUTCHINSON CANCER CENTER, published 2026).
*1 amine or outer side, *2 acyl side, *3 side chain or, on linkers, in order; H or OH if unused. Where no end group is shown, it is not given here. [ ]: non-standard residue; d: D form. βAsp = O=C(O)[C@H](CC(=O)[*:2])N[*:1]; Cit = NC(=O)NCCC[C@H](N)C(=O)O

What was measured:
Experiment in all cases: B cells sorted with PTM-peptide tetramers; PTM epitope to which the cloned antibody binds, Table 7
[1] = biological target: T1, TFRC-5 PTM peptide LND{Cit}VMRVC (human, also: biotinylated, site not given here)
T1 construct: Synthetic citrullinated fragment of TFRC; biotinylated on tetramers for B cell sorting
T1 peptide: LND[Cit]VMRVC
Text: (§1) Once the immunogenic PTM peptides targeted by autoantibodies were identified, PTM-specific autoantibodies were isolated directly from SCLC patients and sequenced (FIG. 13). To accomplish this, PTM-binding B cells were enriched from SCLC patient peripheral blood mononuclear cells using PTM-peptide tetramers. PTM-peptide tetramers were created by combining PE- or APC-labeled magnetic tetramers containing streptavidin cores with biotinylated PTM peptides identified to bind more AAb from SCLC patient plasma compared to wildtype peptides. Five different PTM peptides were included in each PTM-tetramer; 5 citrullinated TFRC peptides were conjugated to PE-tetramers and 5 isoaspartylated peptides (3 CA9, 1 PLD3 and 1 SPINK1) were conjugated to APC-tetramers. These PTM-tetramers were then incubated with pooled peripheral blood mononuclear cells (PBMCs) from 3 different SCLC patients and tetramer bound cells were isolated with magnetic microbeads. This PTM-tetramer ‘enriched’ fraction was labeled with fluorescent antibodies and fluorescence activated cell sorted (FACS) into single cells. PTM-tetramer+ B cells were sorted, heavy and light chain antibody sequences from each B cell were amplified by RT-PCR, and heavy and light chain pairs were successfully sequenced. These sequences were cloned into human IgG expression vectors for antibody production and are shown in Table 7 with the location of the CRs underlined. The sequences of the CDRs were determined using the ImMunoGeneTics (IMGT) information system domain gap align.

[2] = biological target: T2, TFRC-1 PTM peptide DFPAA{Cit}RLYW (human)
T2 construct: Synthetic citrullinated fragment of TFRC
T2 peptide: DFPAA[Cit]RLYW
Text: as §1

[3] = biological target: T3, TFRC-2 PTM peptide DFPAAR{Cit}LYW (human)
T3 construct: Synthetic citrullinated fragment of TFRC
T3 peptide: DFPAAR[Cit]LYW
Text: as §1

[4] = biological target: T4, SPINK1-1 PTM peptide YNEL{iso-Asp}GCTKI (human)
T4 construct: Synthetic isoaspartylated fragment of SPINK1
T4 peptide: YNEL[βAsp]GCTKI
Text: as §1

[5] = biological target: T5, CA9-3 PTM peptide GV{isoAsp}SSPR (human)
T5 construct: Synthetic isoaspartylated fragment of CA9
T5 peptide: GV[βAsp]SSPR
Text: as §1

[6] = biological target: T6, TFRC-4 PTM peptide LNDRVM{Cit}VEYC (human, also: biotinylated, site not given here)
T6 construct: Synthetic citrullinated fragment of TFRC; biotinylated on streptavidin tetramers for B cell sorting
T6 peptide: LNDRVM[Cit]VEYC
Text: as §1

B1: 2H8 (antibody, V domains shown)
VH: QVQLVESGGGVVQPGRSLRLSCAASGFTFSTYGMHWVRQAPGKGLQWVAQISNDGSSKYYGDSVKGRFTISRDNSKNTLYLQMNSLRVEDTGVYYCASSGSSGTWGQGTQVTVSS
VL: EIVLTQSPATLFLFPGERVTFSCRASQSVNNYLAWYQQKPGQAPRLLIYDVSNRATGIPARFSGSGSGTDFTLTISSLDPEDFAVYFCQQRSNWPLTFGGGTKVEIK
Question: Does B1 bind [1]?
Answer: Result: binds

B2: 2H5 (antibody, V domains shown)
VH: EVQLLESGGGLAQPGGSLRLSCGASGFTFSSHALSWVRLAPGKGLEWVSAISGSGDRTYYADSVKGRFTISRDNSKNMLYLQMNSLRGEDTAVYYCAKEATESYATSWGQGTLVTVSS
VL: DIQMTQSPSTLSASVGDRVTITCRASQSISSWLAWYQQKPGKAPNLLISKAFSVESGVPSTFSGSGSGTEFTLTISSLQPRDSASYYCQQYDSGWTFGQGTKVEIK
Question: Does B2 bind [2]?
Answer: Result: binds

Question: Does B2 bind [3]?
Answer: Result: binds

B3: 1A6 (antibody, V domains shown)
VH: QAGLLESGGGVVQPGRSLRLSCAASGFTFSSYGMHWVRQAPGKGLEWVAVIWYDGSNKYYADSVKGRFTISRDNSKNTLYLQMNSLRAEDTAVYYCARGGGITGTVSRKQGMDVWGQGTLVTVSS
VL: AIQLTQSPSSLSASVGDRVTITCRASQGISSYLAWYQQKPGKAPKLLMYGASTLQSGVPSRFSGSGSGTDFTLTISSLQPEDFATYYCQQVNSYPLTFGGGTKVEIK
Question: Does B3 bind [4]?
Answer: Result: binds

B4: 1B3 (antibody, V domains shown)
VH: QVQLVESGGGLVQPGGSLRLSCAASGFTFSSYWMSWVRQAPGKGLEWVANIKQDGSEEYYVDSVKGRFTISRDNAKSLLYLQMNSLRPEDTAVYYCAGDSLPSSGWEGYFQHWGQGTLVTVSS
VL: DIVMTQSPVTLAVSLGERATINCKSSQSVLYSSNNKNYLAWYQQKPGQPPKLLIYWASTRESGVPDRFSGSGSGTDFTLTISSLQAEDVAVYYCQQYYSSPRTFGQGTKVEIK
Question: Does B4 bind [5]?
Answer: Result: binds

B5: 2D2 antibody (antibody, V domains shown)
VH: QVQLVESGGGVVQPGRSLRLSCAASGFTFNSFALMWVRQAPGKGLEWVAVISNDGSNTYYADSVKGRFTISRDNSKNTLYLQMNSLRAEDTAVYYCARGSQYYGSGRYSRKQFDYWGQGTMVTVSS
VL: DIQMTQSPLSLPVTPGEPASISCRSSQSLLHADDGNTYLDWYLQKPGQSPQLLIYTLSSRASGVPDRFSGSGSGTNFTLRISRVEAEDVGVYYCMQRIESPLTFGGGTKVEIK
notes: From B cells of SCLC patient PBMCs; Labeled with CF770 for the in vivo imaging; also called 770-labeled 2D2 antibody
Question: Does B5 bind [6]?
Answer: Result: binds
